Data on 36 sequences can be found in the supplement of paper PMC12764529.

Series [1] can be described thus: folding stability dG unfold from trypsin proteolysis; higher = more stable. Put shortly:
(§1)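 Only designs with AlphaFold2 dimer inter-PAE above 15 were retained; each was a mini-protein under 80 residues with no cysteine, in a PA-tagged cDNA display construct. After digestion with trypsin and chymotrypsin and sequencing, K50 was inferred by Bayesian fitting of counts, and unfolding free energy was derived per protease or combined against a sequence-predicted unfolded-state K50 and a shared folded-state K50.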

The nature of series [2]: folding stability dG unfold from chymotrypsin proteolysis; higher = more stable. The method, boiled down: as §1
Series [3] is described as follows: folding stability dG unfold (combined trypsin and chymotrypsin); higher = more stable. Put shortly: as §1

± gives the half width of the 95% confidence interval.

As to “SAGGSAGGNITPEAKKLVEELADQISEEFPNNGMDIEVEDITWQPDGNVVIRIRFNGWTIWIPVSAGGSAGG [r6_495_TrROS]”, the “folding stability dG unfold” value amounted to 1.44 ± 0.083 kcal/mol in series [1], 2.25 ± 0.05 kcal/mol in series [2] and 2.03 ± 0.16 kcal/mol in series [3].

For the sequence “SAGGSAGGPANKKYLLVADAEVDPETGTVKVTVEYPNGKKVEFTFPAKNFHPDEKVLVPVVVTDSAGGSAGG [r6_768_TrMRF]”, the “folding stability dG unfold” value came out at 1.02 ± 0.052 kcal/mol in series [1], 0.67 ± 0.17 kcal/mol in series [2] and 0.86 ± 0.1 kcal/mol in series [3].

Take “SAGGSAGGPEIRITEARRDPNGMFTFIVEIPPEDLDNIKPGEEIEITFNGQEFNFNVQIIPADDSAGGSAGG [r6_373_TrROS]”: the “folding stability dG unfold” value in series [1] was found to be 0.257 ± 0.14 kcal/mol; in series [2], 1.13 ± 0.2 kcal/mol; in series [3], 0.716 ± 0.29 kcal/mol.

“SAGGSAGGPETIPLRFGEEEVLLVLSPEDPDRFLAYFPAEGRVYLYRLLPEGLEFLREVPAEELSAGGSAGG [r6_915_TrMRF]”: the “folding stability dG unfold” value is 2.1 ± 0.066 kcal/mol in series [1], 2.03 ± 0.13 kcal/mol in series [2] and 2.07 ± 0.1 kcal/mol in series [3].

Take “SAGGSAGGPEVTITVEEKDGYLVLTVTVPPGVERLELTIEVNGKLVTLELELKPGQTLTFVLPPSAGGSAGG [r6_971_TrROS_Hall]”: the entries for the “folding stability dG unfold” value in series [1], in series [2] and in series [3] were 4.6 ± 0.3 kcal/mol, 3.86 ± 0.12 kcal/mol and 3.97 ± 0.13 kcal/mol, respectively.

“SAGGSAGGPEVYPVPGLTPEQFRELVERHGGRLRVVLPGGEEVELDFTRDSRPIPGKPAVVVFGSAGGSAGG [r6_303_TrMRF]”: the figures for the “folding stability dG unfold” value in series [1], in series [2] and in series [3] were 0.498 ± 0.019 kcal/mol, -0.544 ± 0.12 kcal/mol and 0.12 ± 0.048 kcal/mol, respectively.

As to “SAGGSAGGPFKIKITEIFLIPFEPGEMIMIEIRFPNGKVYYIMLQVNPGNGWIWIAIMEIKPPDSAGGSAGG [r6_337_TrROS]”, the “folding stability dG unfold” value in series [1] is 3.91 ± 0.35 kcal/mol; in series [2] it was 5.1 ± 0.12 kcal/mol; in series [3] it was 4.74 ± 0.33 kcal/mol.

Consider “SAGGSAGGPIKIKAKIFDPNGQPQEHEGEIDNPNGEPYKIKIDIFVLPDPDDEPNLVINVEIEPSAGGSAGG [r6_335_TrROS]”, for which the entries for the “folding stability dG unfold” value in series [1], in series [2] and in series [3] were 1.38 ± 0.11 kcal/mol, 3.33 ± 0.17 kcal/mol and 2.77 ± 0.13 kcal/mol, respectively.

As to “SAGGSAGGPKIRIEIEHYDNYIVISIRIPPGMPPGQEIKFEIGGYPVKVTYDPEDGWMTISFPASAGGSAGG [r6_267_TrROS]”, the “folding stability dG unfold” value in series [1] was found to be 3.24 ± 0.076 kcal/mol; in series [2] it was 3.06 ± 0.082 kcal/mol; in series [3], 3.2 ± 0.14 kcal/mol.

Turning to “SAGGSAGGPKTKTVDFIVPALDENGNPLPDNAKFTFKLPDKTINIDFKRDKDSDYVLVKATITNSAGGSAGG [r6_657_TrMRF]”, the “folding stability dG unfold” value in series [1] was 0.197 ± 0.11 kcal/mol; in series [2], 0.901 ± 0.14 kcal/mol; in series [3] it was 0.625 ± 0.098 kcal/mol.

As for “SAGGSAGGPLVFEADATGTAPDDKELVIERVLVVVDPVRGEAHLYARIPGTGEWRYLGTFDLKDSAGGSAGG [r6_329_TrMRF]”, the results for the “folding stability dG unfold” value in series [1], in series [2] and in series [3] were 2.91 ± 0.093 kcal/mol, 3.315 ± 0.023 kcal/mol and 3.21 ± 0.082 kcal/mol, respectively.

Take “SAGGSAGGPSLRLTFPFPPGFSVTIELFPDGTARITIHNSDGSLLLSFSIPLPPVIPPDPSSLLSAGGSAGG [r6_238_TrMRF]”: the figures for the “folding stability dG unfold” value in series [1], in series [2] and in series [3] were 3.33 ± 0.17 kcal/mol, 2.63 ± 0.084 kcal/mol and 2.84 ± 0.38 kcal/mol, respectively.

As to “SAGGSAGGPVIEIEMPKNGFFRVKIWNPGNGKKQEYWIPPDEPDALKSLLDPGIDRVEIEPYPPSAGGSAGG [r6_640_TrROS]”, the “folding stability dG unfold” value was -0.000886 ± 0.15 kcal/mol in series [1], 1.04 ± 0.1 kcal/mol in series [2] and 0.671 ± 0.082 kcal/mol in series [3].

On to “SAGGSAGGPVRITSVRPIPGDPNVVVLELETVDGRPGTVLLVRLPGGERVAVLTLGDRPVVLPLSAGGSAGG [r6_555_TrMRF]”, for which the “folding stability dG unfold” value came out at 0.42 ± 0.013 kcal/mol in series [1], 1.93 ± 0.065 kcal/mol in series [2] and 1.41 ± 0.045 kcal/mol in series [3].

On to “SAGGSAGGPVWKIRFPDDGKPYEFHINPNHGMIEVEDPKDGEPKGTVPMPINQLLEKGMEVEPVSAGGSAGG [r6_832_TrROS]”, for which the “folding stability dG unfold” value was -0.769 ± 0.28 kcal/mol in series [1], -0.45 ± 0.26 kcal/mol in series [2] and -0.551 ± 0.21 kcal/mol in series [3].

For “SAGGSAGGRFRIKFKNGPVIEIDPNEPTIRFPDGSRRFPLNGDDAEEALEEFLSNGMKITEIEPSAGGSAGG [r6_340_TrROS]”, the “folding stability dG unfold” value in series [1] was -0.149 ± 0.2 kcal/mol; in series [2] it was 0.99 ± 0.14 kcal/mol; in series [3], 0.641 ± 0.16 kcal/mol.

On to “SAGGSAGGRIMIPVKNIKGQPAEEAKQWLKAILRELFPPGMKIDIDVQPDKDGEYWVTIDIKPPSAGGSAGG [r6_964_TrROS]”, for which the “folding stability dG unfold” value stood at 1.64 ± 0.23 kcal/mol in series [1], 2.48 ± 0.099 kcal/mol in series [2] and 2 ± 0.44 kcal/mol in series [3].

With “SAGGSAGGRRIYLPDFGAGGSGLVKAAEIAAAFEEEGYVASVSFSTSPFGPSVLVVDVASPSELSAGGSAGG [r6_597_TrMRF]”, the “folding stability dG unfold” value was -0.606 ± 0.17 kcal/mol in series [1], -0.0496 ± 0.13 kcal/mol in series [2] and -0.171 ± 0.14 kcal/mol in series [3].

“SAGGSAGGRTLRIMVPMDSPEDAVEQAKEIVRELGLPPNFKIDDINVHRNPNGRYQVMVKIRVNSAGGSAGG [r6_284_TrROS]”: the “folding stability dG unfold” value in series [1] was 1.05 ± 0.052 kcal/mol; in series [2] it was 1.5 ± 0.07 kcal/mol; in series [3] it was 1.35 ± 0.064 kcal/mol.

For “SAGGSAGGSAAITIEVKPGETVTITLEIEVELPPGARAADGRTFKPGEKVRVTVTLTLRVEPSAGGSAGGSA [r18_450_TrROS_Hall]”, the “folding stability dG unfold” value in series [1] was 3.72 ± 0.21 kcal/mol; in series [2] it was 4.21 ± 0.27 kcal/mol; in series [3], 4.26 ± 0.22 kcal/mol.

Consider “SAGGSAGGSAAMLNRKPTVYPLPDDTVRLEETVPSPGTKIYKTIKLPPGGLIEEGDVSYPPSAGGSAGGSAG [r3_165_JUSTAS]”, for which the “folding stability dG unfold” value is -1.08 ± 0.31 kcal/mol in series [1], -0.367 ± 0.23 kcal/mol in series [2] and -0.521 ± 0.19 kcal/mol in series [3].

For “SAGGSAGGSAAPEVTIKVTITYDPETNVLTIEAEATLPDGRKVRITARINKDGSIEIVSVEEVSAGGSAGGS [r12_1029_TrROS_Hall]”, the entries for the “folding stability dG unfold” value in series [1], in series [2] and in series [3] were 4.63 ± 0.64 kcal/mol, 4.61 ± 0.91 kcal/mol and above 6 kcal/mol, respectively.

Consider “SAGGSAGGSADDGDPNKQEPKPEVKVRPIEIRMSFAYYPPNGEPWMFSIEIRIWVYDGGLVSAGGSAGGSAG [r3_380_TrROS]”, for which the “folding stability dG unfold” value in series [1] stood at 3.85 ± 0.1 kcal/mol; in series [2], 5.61 ± 0.095 kcal/mol; in series [3], 5.34 ± 0.16 kcal/mol.

As to “SAGGSAGGSADEEKLKELAEKLREAGYEVEVERYPDKVVIRVRNKKTGKTLELVFDSVEEALSAGGSAGGSA [r18_278_TrROS_Hall]”, the “folding stability dG unfold” value was determined as 4.24 ± 0.12 kcal/mol in series [1], 2.95 ± 0.096 kcal/mol in series [2] and 3.92 ± 0.15 kcal/mol in series [3].

“SAGGSAGGSADGPPTFRVRIKWKNGKKMKFEIDPNDSLEQVADPLSKLPGIDDIKDLEIYPSAGGSAGGSAG [r3_308_TrROS]”: the “folding stability dG unfold” value was 0.725 ± 0.13 kcal/mol in series [1], 1.05 ± 0.44 kcal/mol in series [2] and 0.764 ± 0.18 kcal/mol in series [3].

For the sequence “SAGGSAGGSADNWFIQIKWRHPENGKKRTLHIPFKTPWDVEEIVEELAPPGMDEVEVKIYPFSAGGSAGGSA [r18_258_TrROS]”, the “folding stability dG unfold” value in series [1] worked out at 0.707 ± 0.051 kcal/mol; in series [2], 1.25 ± 0.091 kcal/mol; in series [3] it was 1.03 ± 0.061 kcal/mol.

As for “SAGGSAGGSADPSVKPPVIKRLVIDIPLEELEKLFPGKLEKAVELAEEAVKLGFDEVVILGGSAGGSAGGSA [r18_441_TrMRF]”, the “folding stability dG unfold” value turned out to be 0.116 ± 0.031 kcal/mol in series [1], 1.12 ± 0.023 kcal/mol in series [2] and 0.793 ± 0.049 kcal/mol in series [3].

“SAGGSAGGSADVVVEVEYDSSGDYVLVKVKLKEKEIPFKFSKSLSPEEVIEKAKELAKKAAKSAGGSAGGSA [r18_266_TrMRF]”: the figures for the “folding stability dG unfold” value in series [1], in series [2] and in series [3] were 0.597 ± 0.098 kcal/mol, 0.584 ± 0.27 kcal/mol and 0.677 ± 0.13 kcal/mol, respectively.

For “SAGGSAGGSAEEKVFVKLYLNPNEPPTIDLEFFFEDGRVVRLRLDLATGTLNDIDPRPLDFSAGGSAGGSAG [r3_299_TrMRF]”, the “folding stability dG unfold” value in series [1] was 2.74 ± 0.082 kcal/mol; in series [2], 2.97 ± 0.046 kcal/mol; in series [3], 2.8 ± 0.12 kcal/mol.

“SAGGSAGGSAEELAKELAKKLPPGAKFKIEVKTEYYKTKDGKTVKKKVEIKIYNEDGEEVTSAGGSAGGSAG [r3_247_TrROS_Hall]”: the figures for the “folding stability dG unfold” value in series [1], in series [2] and in series [3] were -0.0104 ± 0.19 kcal/mol, 1.1 ± 0.51 kcal/mol and 0.679 ± 0.32 kcal/mol, respectively.

Regarding “SAGGSAGGSAEIKIEYTLAPDGTLYVKVEIPNPETGETLVLEGPFDSLEEAIEVAKELEKESAGGSAGGSAG [r3_174_TrMRF]”, the “folding stability dG unfold” value in series [1] turned out to be 2.29 ± 0.23 kcal/mol; in series [2], 2.77 ± 0.056 kcal/mol; in series [3], 2.68 ± 0.18 kcal/mol.

In the case of “SAGGSAGGSAEITFNFPNPNGRPYPISIEIEKPKRNPDGKYRYDYKIKVSPGMPKEAAKDLFSAGGSAGGSA [r18_272_TrROS]”, the “folding stability dG unfold” value in series [1] was -0.849 ± 0.39 kcal/mol; in series [2] it was -0.314 ± 0.33 kcal/mol; in series [3], -0.351 ± 0.2 kcal/mol.

On to “SAGGSAGGSAEITVEWPNGRPVTVEPDPDSGMYEARFPDGWVVRAPFTNGKIPIDWIPPKDVSAGGSAGGSA [r18_405_TrROS]”, for which the “folding stability dG unfold” value is -0.578 ± 0.28 kcal/mol in series [1], 0.282 ± 0.07 kcal/mol in series [2] and 0.00326 ± 0.08 kcal/mol in series [3].

With “SAGGSAGGSAEIVPVDGKLYVRIEVDGKTYVFEFDSVEELKNATFTLPNGKKVKVEIVPKEDLSAGGSAGGS [r12_730_TrROS_Hall]”, the “folding stability dG unfold” value in series [1] was 2.26 ± 0.067 kcal/mol; in series [2] it was 3.433 ± 0.029 kcal/mol; in series [3], 3.12 ± 0.059 kcal/mol.

Regarding “SAGGSAGGSAEKKKVTIRIVVKPEDVEEILKAIEELLPPGAKATIKVFDKNGELIAEFEFEVSAGGSAGGSA [r18_188_TrROS_Hall]”, the “folding stability dG unfold” value in series [1] was 2.5 ± 0.17 kcal/mol; in series [2] it was 3.09 ± 0.25 kcal/mol; in series [3] it was 2.86 ± 0.12 kcal/mol.

In the case of “SAGGSAGGSAEKKTITVVVKVDENGKEKTPEELAKELEKAGFKVTKVTWDEENNYVTVTIEASAGGSAGGSA [r18_466_TrROS_Hall]”, the figures for the “folding stability dG unfold” value in series [1], in series [2] and in series [3] were 1.72 ± 0.088 kcal/mol, 1.11 ± 0.049 kcal/mol and 1.4 ± 0.18 kcal/mol, respectively.
